# According to patent US20130172235A1, “ORAL TREATMENT OF INFLAMMATORY BOWEL DISEASE” (Novozymes A/S, priority 2011, published 2013):
# Ends that are not written are not given here.
# Tested on: Dextran Sodium Sulphate (DSS)-induced colitis
# Experiment: 10-Day Dextran Sodium Sulphate (DSS)-induced colitis model in the mouse
# Assay type: in vivo, Male C57BL/6 mice
# Set-up: key to Disease Activity Index (DAI): clinical DAI score, daily maximum 12
# Conditions: for Disease Activity Index (DAI): mean ± SEM, n=10; for inhibition of the disease activity index (DAI) / additional DAI score without the change in body weight (only stool consistency and rectal bleeding): vs. vehicle; for additional DAI score without the change in body weight (only stool consistency and rectal bleeding): oral, 10-day treatment
# Description: 10-Day Dextran Sodium Sulphate (DSS)-Induced Colitis Model in the Mouse
# The aim of the following study was to determine the anti-inflammatory activity of human beta defensin 2 in an acute (10-days) model of inflammatory bowel disease (colitis) induced by oral dextran sodium sulphate (DSS) administration in the mouse.
# Study design: animals were divided into 5 experimental groups. Each group consisted of 10 males: Group A: Treated with Control vehicle (PBS) p.o. twice daily. Group B: Treated with methylprednisolone (1 mg/kg p.o. twice daily). Group C: Treated with hBD2 (0.05 mg/kg p.o. twice daily). Group D: Treated with hBD2 (0.5 mg/kg p.o. […]). Group E: Treated with hBD2 (5 mg/kg p.o. […]). Animal allocation to all experimental groups was done in a randomized manner. A maximum of 5 mice were housed in each cage (as per Directive 86/609/EEC). All animals were weighed on their arrival at the laboratory and prior to the administration of the test items.
# The control vehicle and hBD2 were administered orally with the use of a sterile cannula in a dosing volume of 10 ml/kg body weith. The animals of all groups recieved 2 doses daily (at 9.00 h and 17.00 h) of the corresponding test item (test, reference or vehicle) for 10 consecutive days (experimental days 1-10).
# Colitis was induced in mice by supplementing their drinking water with DSS 2% for 7 days. On Day 1 all mice were weighed and marked according to their experimental groups. The drinking bottle of each cage was filled with the DSS solution, making sure all bottle lids were mounted properly and that none were congested. On Day 3 any remaining solution in the bottles was emptied and refilled with fresh DSS solution. This procedure was repeated again on Day 5. On Day 8 any remaining solution was discarded and replaced with autoclaved water. Animals were sacrificed 2 days later on Day 10.
# Daily clinical assessment of DSS-treated animals was carried out, with the calculation of a validated clinical Disease Activity Index (DAI) ranging from 0 to 4 according to the following parameters: stool consistency, presence or absence of rectal bleeding and weight loss:
# Bodyweight loss was calculated as the percent difference between the original bodyweight (Day 1) and the actual bodyweight on each experimental day (2-10). The appearance of diarrhoea is defined as mucus/faecal material adherent to anal fur. Rectal bleeding is defined as diarrhoea containing visible blood/mucus or gross rectal bleeding. The maximum score of the DAI each day is 12.
# On day 10, two hours after the last administration of control vehicle, hBD2 or prednisolone, the animals were killed by an overdose of anaesthetic. Their colons were removed and their length and weight measured after exclusion of the caecum. Two sections (proximal and distal) of colon were taken from each animal and preserved in neutral buffered formalin for subsequent histological analysis (haematoxylin and eosin staining) according to the following scoring system:
# Description Score: No changes observed (0). Minimal scattered mucosal inflammatory cell infiltrates, with or without minimal epithelial hyperplasia (1). Mild scattered to diffuse inflammatory cell infiltrates, sometimes extending into the submucosa and associated with erosions, with minimal to mild epithelial hyperplasia and minimal to mild mucin depletion from goblet cells (2). Mild to moderate inflammatory cell infiltrates that were sometimes transmural, often associated with ulceration, with moderate epithelial hyperplasia and mucin depletion (3). Marked inflammatory cell infiltrates that were often transmural and associated with ulceration, with marked epithelial hyperplasia and mucin depletion (4). Marked transmural inflammation with severe ulceration and loss of intestinal glands (5). […]
# [1] = prednisolone 1 mg/kg p.o. twice daily (Group B), day 10
compound,measurement,setting,value
"Human beta defensin 2 (GIGDPVTCLKSGAICHPVFCPRRYKQIGTCGLPGTKCCKKP; ends and bridges not checked; cysteine pairing not given here; listed as Homo sapiens) [hBD2, human beta defensin 2 (hBD2]",Disease Activity Index (DAI),"hBD2 0.05 mg/kg p.o., Day 6, max score 12, P < 0.01 vs. vehicle",1.2 ± 0.59
same,Disease Activity Index (DAI),"hBD2 0.05 mg/kg p.o., Day 7, P < 0.05 vs. vehicle",1.9 ± 0.66
same,Disease Activity Index (DAI),"hBD2 0.05 mg/kg p.o., Day 8, P < 0.001 vs. vehicle",4.5 ± 0.86
same,Disease Activity Index (DAI),"hBD2 0.05 mg/kg p.o., Day 9, P < 0.001 vs. vehicle",5.6 ± 0.54
same,Disease Activity Index (DAI),"hBD2 0.05 mg/kg p.o., Day 10, P < 0.05 vs. vehicle",8 ± 0.73
same,Disease Activity Index (DAI),"hBD2 0.5 mg/kg p.o., Day 6, P < 0.05 vs. vehicle",1.7 ± 0.67
same,Disease Activity Index (DAI),"hBD2 0.5 mg/kg p.o., Day 9, P < 0.05 vs. vehicle",7.1 ± 0.61
same,Disease Activity Index (DAI),"hBD2 0.5 mg/kg p.o., Day 10, P < 0.01 vs. vehicle",7.3 ± 0.7
same,Disease Activity Index (DAI),"hBD2 5 mg/kg p.o., Day 3, P < 0.05 vs. vehicle",0.5 ± 0.27
same,Disease Activity Index (DAI),"hBD2 5 mg/kg p.o., Day 4, P < 0.05 vs. vehicle",0.6 ± 0.27
same,Disease Activity Index (DAI),"hBD2 5 mg/kg p.o., Day 5, P < 0.05 vs. vehicle",1.8 ± 0.76
same,Disease Activity Index (DAI),"hBD2 5 mg/kg p.o., Day 6, P < 0.05 vs. vehicle",1.4 ± 0.6
same,Disease Activity Index (DAI),"hBD2 5 mg/kg p.o., Day 7, P < 0.05 vs. vehicle",2.1 ± 0.96
same,Disease Activity Index (DAI),"hBD2 5 mg/kg p.o., Day 8, P < 0.01 vs. vehicle",5.4 ± 0.87
same,Disease Activity Index (DAI),"hBD2 5 mg/kg p.o., Day 9, P < 0.001 vs. vehicle",5.2 ± 0.76
same,Disease Activity Index (DAI),"hBD2 5 mg/kg p.o., Day 10, P < 0.001 vs. vehicle",5.6 ± 0.48
same,inhibition of the disease activity index (DAI),"hBD2 at three dose levels (0.05, 0.5, 5 mg/kg) via the oral route",significant inhibition
same,histological damage in the proximal colon,"hBD2 twice daily, at 3 dose levels, p.o., day 10",significant reduction
same,histological damage in the distal colon,"hBD2 twice daily, at the intermediate and high dose levels, p.o., day 10",significant reduction
same,body weight compared to the control group,"high dose of the test item (5 mg/kg p.o.), day 10, P<0.05",significant increase
same,additional DAI score without the change in body weight (only stool consistency and rectal bleeding),,very significant anti-inflammatory activity
"C[C@H]1C[C@@H]2[C@H]([C@@H](O)C[C@@]3(C)[C@H]2CC[C@]3(O)C(=O)COC(=O)CCC(=O)O)[C@@]2(C)C=CC(=O)C=C12 [Methylprednisolone 21-hemisuccinate, reference compound]",Disease Activity Index (DAI),"Prednisolone 1 mg/kg p.o. twice daily, Day 6 as printed, P < 0.01 vs. vehicle",7 ± 0.33
same,additional DAI score without the change in body weight (only stool consistency and rectal bleeding),,very significant anti-inflammatory activity
same,histological injury induced by DSS in the distal colon,[1],significantly reduced
same,histological injury induced by DSS in the proximal colon,[1],significantly reduced
same,body weight,"prednisolone 1 mg/kg p.o. twice daily (group B), from day 2 until the end of the study",significant decrease
same,inhibition of the disease activity index (DAI),reference item prednisolone 1 mg/kg p.o. twice daily,significant inhibition
